Results taken from patent US20020006903A1.
pEC50: −log10 of the molar value.

Legend:
[1] = biological target: T cell receptor of 2C cytotoxic T lymphocytes; experiment: cell-based or functional assay
[2] = biological target: T cell receptor of 2C cytotoxic T lymphocytes; experiment: flow cytometry on 2C T cells, varying concentrations of complex
[3] = biological target: T cell receptor of 2C cytotoxic T lymphocytes; experiment: flow cytometry on 2C T cells, passively loaded complex, half maximal staining
[4] = biological target: T cell receptor of 2C cytotoxic T lymphocytes; experiment: flow cytometry on 2C T cells, passively loaded complex
[5] = biological target: T cell receptor of 2C cytotoxic T lymphocytes; experiment: flow cytometry on 2C T cells, actively loaded complex
[6] = biological target: T cell receptor of 2C cytotoxic T lymphocytes; experiment: flow cytometry on 2C T cells, actively against passively loaded complex
[7] = biological target: T cell receptor of 2C cytotoxic T lymphocytes; experiment: flow cytometry on 2C T cells, actively loaded complex at 0.1 nM
[8] = biological target: T cell receptor of 2C cytotoxic T lymphocytes; experiment: flow cytometry on 2C T cells, actively loaded complex, half maximal staining

Chain of SIY peptide-loaded H-2 K^b/Ig complex (P01901 22-305, one chain of several): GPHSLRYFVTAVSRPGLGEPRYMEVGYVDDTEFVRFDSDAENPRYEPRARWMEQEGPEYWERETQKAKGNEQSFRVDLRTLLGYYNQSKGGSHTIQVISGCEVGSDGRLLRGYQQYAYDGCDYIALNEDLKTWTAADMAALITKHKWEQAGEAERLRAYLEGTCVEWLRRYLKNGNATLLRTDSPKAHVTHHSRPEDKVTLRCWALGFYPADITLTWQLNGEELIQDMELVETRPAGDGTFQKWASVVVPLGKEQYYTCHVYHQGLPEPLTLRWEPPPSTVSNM
Chain of QL9 peptide-loaded H-2 L^d/Ig complex (P01897 25-309, one chain of several): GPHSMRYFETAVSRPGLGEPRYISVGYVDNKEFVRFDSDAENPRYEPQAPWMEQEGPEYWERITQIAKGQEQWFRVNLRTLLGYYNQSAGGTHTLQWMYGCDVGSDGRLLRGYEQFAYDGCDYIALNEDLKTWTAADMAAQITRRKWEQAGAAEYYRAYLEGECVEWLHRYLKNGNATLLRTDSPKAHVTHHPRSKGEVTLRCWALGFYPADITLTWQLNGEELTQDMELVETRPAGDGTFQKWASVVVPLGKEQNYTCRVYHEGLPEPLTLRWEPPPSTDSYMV

Substance	half maximal inhibition of target cell lysis by 2C CTL [1] [nM]	target cell lysis by 2C CTL (percent specific lysis, chromium release) [1] [%]	pEC50 [2]	pEC50 [3]	concentration required for staining [4] [nM]	2C CTL mediated lysis of target cells (specific lysis) [1] [%]	concentration of maximal inhibition of proliferation of 2C CTL stimulated by allogeneic splenic cells [1] [nM]	half maximal inhibition of proliferation of 2C CTL [1] [nM]	stimulation index of 2C CTL proliferation ([3H]thymidine) [1]	lowest concentration at which staining was seen [5] [nM]	fold more effective in staining than the “passively” loaded complex [6] [fold]	mean channel fluorescence (MCF) at 0.1 nM [7]	pEC50 [8]
QL9 peptide-loaded H-2 L^d/Ig complex (from UniProt P01897 25-309) (peptide-MHC)	10	2	9.00										
SIY peptide-loaded H-2 K^b/Ig complex (from UniProt P01901 22-305) (peptide-MHC)			9.00	8.00	10	35	20	1	10	0.1	10 to 100	53	9.00
